Results published in IntAct's records for PubMed 31515488.

B1: Paraneoplastic antigen-like protein 5 (Homo sapiens), Q96PV4 (parent)
chain: MALTLLEDWCKGMDMDPRKALLIVGIPMECSEVEIQDTVKAGLQPLCAYRVLGRMFRREDNAKAVFIELADTVNYTTLPSHIPGKGGSWEVVVKPRNPDDEFLSRLNYFLKDEGRSMTDVARALGCCSLPAESLDAEVMPQVRSPPLEPPKESMWYRKLKVFSGTASPSPGEETFEDWLEQVTEIMPIWQVSEVEKRRRLLESLRGPALSIMRVLQANNDSITVEQCLDALKQIFGDKEDFRASQFRFLQTSPKIGEKVSTFLLRLEPLLQKAVHKSPLSVRSTDMIRLKHLLARVAMTPALRGKLELLDQRGCPPNFLELMKLIRDEEEWENTEAVMKNKEKPSGRGRGASGRQARAEASVSAPQATVQARSFSDSSPQTIQGGLPPLVKRRRLLGSESTRGEDHGQATYPKAENQTPGREGPQAAGEELGNEAGAGAMSHPKPWET
B2: FXYD domain-containing ion transport regulator 3 (Homo sapiens), Q14802 (parent)
chain: MQKVTLGLLVFLAGFPVLDANDLEDKNSPFYYDWHSLQVGGLICAGVLCAMGIIIVMSAKCKCKFGQKSGHHPGETPPLITPGSAQS
partner: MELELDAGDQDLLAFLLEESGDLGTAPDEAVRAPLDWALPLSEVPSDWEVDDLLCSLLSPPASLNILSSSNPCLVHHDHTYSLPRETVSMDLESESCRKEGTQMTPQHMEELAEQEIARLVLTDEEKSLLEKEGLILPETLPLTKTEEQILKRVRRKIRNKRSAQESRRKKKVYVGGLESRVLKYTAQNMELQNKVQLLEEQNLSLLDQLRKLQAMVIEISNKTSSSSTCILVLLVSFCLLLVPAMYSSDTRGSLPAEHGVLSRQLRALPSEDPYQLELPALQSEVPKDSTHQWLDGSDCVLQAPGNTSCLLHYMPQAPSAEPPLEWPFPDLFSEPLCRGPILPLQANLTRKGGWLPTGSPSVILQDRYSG
B3: Alpha-ketoglutarate-dependent dioxygenase alkB homolog 4 (Homo sapiens), Q9NXW9 (parent)
chain: MAAAAAETPEVLRECGCKGIRTCLICERQRGSDPPWELPPAKTYRFIYCSDTGWAVGTEESDFEGWAFPFPGVMLIEDFVTREEEAELVRLMDRDPWKLSQSGRRKQDYGPKVNFRKQKLKTEGFCGLPSFSREVVRRMGLYPGLEGFRPVEQCNLDYCPERGSAIDPHLDDAWLWGERLVSLNLLSPTVLSMCREAPGSLLLCSAPSAAPEALVDSVIAPSRSVLCQEVEVAIPLPARSLLVLTGAARHQWKHAIHRRHIEARRVCVTFRELSAEFGPGGRQQELGQELLRIALSFQGRPV
partner: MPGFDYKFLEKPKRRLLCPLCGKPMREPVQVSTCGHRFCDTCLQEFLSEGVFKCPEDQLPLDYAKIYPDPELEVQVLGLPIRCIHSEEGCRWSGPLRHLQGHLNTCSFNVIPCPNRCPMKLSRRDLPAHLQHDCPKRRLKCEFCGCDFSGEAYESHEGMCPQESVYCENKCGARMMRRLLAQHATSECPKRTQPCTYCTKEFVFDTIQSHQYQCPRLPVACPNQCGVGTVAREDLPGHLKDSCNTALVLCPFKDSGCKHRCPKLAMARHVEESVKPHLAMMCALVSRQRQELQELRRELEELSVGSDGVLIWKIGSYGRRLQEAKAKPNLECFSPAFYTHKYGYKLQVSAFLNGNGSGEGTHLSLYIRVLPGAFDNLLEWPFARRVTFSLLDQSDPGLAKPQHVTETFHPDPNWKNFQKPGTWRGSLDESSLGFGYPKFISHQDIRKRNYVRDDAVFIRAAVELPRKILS
B4: MIF4G domain-containing protein (Homo sapiens), A9UHW6 (parent)
chain: MGEPSREEYKIQSFDAETQQLLKTALKDPGAVDLEKVANVIVDHSLQDCVFSKEAGRMCYAIIQAESKQAGQSVFRRGLLNRLQQEYQAREQLRARSLQGWVCYVTFICNIFDYLRVNNMPMMALVNPVYDCLFRLAQPDSLSKEEEVDCLVLQLHRVGEQLEKMNGQRMDELFVLIRDGFLLPTGLSSLAQLLLLEIIEFRAAGWKTTPAAHKYYYSEVSD
partner: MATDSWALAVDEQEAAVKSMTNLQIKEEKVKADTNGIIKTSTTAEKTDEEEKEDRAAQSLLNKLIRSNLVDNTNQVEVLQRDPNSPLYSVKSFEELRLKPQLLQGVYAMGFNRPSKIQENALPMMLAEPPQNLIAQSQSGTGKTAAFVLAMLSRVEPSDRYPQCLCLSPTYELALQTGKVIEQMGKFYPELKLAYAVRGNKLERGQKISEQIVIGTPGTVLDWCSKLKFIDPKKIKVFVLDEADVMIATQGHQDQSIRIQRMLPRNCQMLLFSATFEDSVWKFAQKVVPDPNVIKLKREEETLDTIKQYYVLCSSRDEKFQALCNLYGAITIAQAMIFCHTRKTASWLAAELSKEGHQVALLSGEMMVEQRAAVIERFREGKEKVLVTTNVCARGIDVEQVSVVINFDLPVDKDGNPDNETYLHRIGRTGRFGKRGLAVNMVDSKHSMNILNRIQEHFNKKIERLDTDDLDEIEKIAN
B5: Protein PALS1 (Homo sapiens), Q8N3R9 (parent)
chain: MTTSHMNGHVTEESDSEVKNVDLASPEEHQKHREMAVDCPGDLGTRMMPIRRSAQLERIRQQQEDMRRRREEEGKKQELDLNSSMRLKKLAQIPPKTGIDNPMFDTEEGIVLESPHYAVKILEIEDLFSSLKHIQHTLVDSQSQEDISLLLQLVQNKDFQNAFKIHNAITVHMNKASPPFPLISNAQDLAQEVQTVLKPVHHKEGQELTALLNTPHIQALLLAHDKVAEQEMQLEPITDERVYESIGQYGGETVKIVRIEKARDIPLGATVRNEMDSVIISRIVKGGAAEKSGLLHEGDEVLEINGIEIRGKDVNEVFDLLSDMHGTLTFVLIPSQQIKPPPAKETVIHVKAHFDYDPSDDPYVPCRELGLSFQKGDILHVISQEDPNWWQAYREGDEDNQPLAGLVPGKSFQQQREAMKQTIEEDKEPEKSGKLWCAKKNKKKRKKVLYNANKNDDYDNEEILTYEEMSLYHQPANRKRPIILIGPQNCGQNELRQRLMNKEKDRFASAVPHTTRSRRDQEVAGRDYHFVSRQAFEADIAAGKFIEHGEFEKNLYGTSIDSVRQVINSGKICLLSLRTQSLKTLRNSDLKPYIIFIAPPSQERLRALLAKEGKNPKPEELREIIEKTREMEQNNGHYFDTAIVNSDLDKAYQELLRLINKLDTEPQWVPSTWLR
partner: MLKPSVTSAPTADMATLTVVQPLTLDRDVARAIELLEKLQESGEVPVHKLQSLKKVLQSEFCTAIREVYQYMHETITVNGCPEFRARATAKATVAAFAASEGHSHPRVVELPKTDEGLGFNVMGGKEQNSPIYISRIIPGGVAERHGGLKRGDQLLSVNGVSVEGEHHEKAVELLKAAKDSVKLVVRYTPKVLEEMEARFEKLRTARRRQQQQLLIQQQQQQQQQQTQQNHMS
B6: Tyrosine-protein phosphatase non-receptor type 9 (Homo sapiens), P43378 (parent)
chain: MEPATAPRPDMAPELTPEEEQATKQFLEEINKWTVQYNVSPLSWNVAVKFLMARKFDVLRAIELFHSYRETRRKEGIVKLKPHEEPLRSEILSGKFTILNVRDPTGASIALFTARLHHPHKSVQHVVLQALFYLLDRAVDSFETQRNGLVFIYDMCGSNYANFELDLGKKVLNLLKGAFPARLKKVLIVGAPIWFRVPYSIISLLLKDKVRERIQILKTSEVTQHLPRECLPENLGGYVKIDLATWNFQFLPQVNGHPDPFDEIILFSLPPALDWDSVHVPGPHAMTIQELVDYVNARQKQGIYEEYEDIRRENPVGTFHCSMSPGNLEKNRYGDVPCLDQTRVKLTKRSGHTQTDYINASFMDGYKQKNAYIGTQGPLENTYRDFWLMVWEQKVLVIVMTTRFEEGGRRKCGQYWPLEKDSRIRFGFLTVTNLGVENMNHYKKTTLEIHNTEERQKRQVTHFQFLSWPDYGVPSSAASLIDFLRVVRNQQSLAVSNMGARSKGQCPEPPIVVHCSAGIGRTGTFCSLDICLAQLEELGTLNVFQTVSRMRTQRAFSIQTPEQYYFCYKAILEFAEKEGMVSSGQNLLAVESQ
partner: B2 partner
B7: Ubl carboxyl-terminal hydrolase 18 (Homo sapiens), Q9UMW8 (parent)
chain: MSKAFGLLRQICQSILAESSQSPADLEEKKEEDSNMKREQPRERPRAWDYPHGLVGLHNIGQTCCLNSLIQVFVMNVDFTRILKRITVPRGADEQRRSVPFQMLLLLEKMQDSRQKAVRPLELAYCLQKCNVPLFVQHDAAQLYLKLWNLIKDQITDVHLVERLQALYTIRVKDSLICVDCAMESSRNSSMLTLPLSLFDVDSKPLKTLEDALHCFFQPRELSSKSKCFCENCGKKTRGKQVLKLTHLPQTLTIHLMRFSIRNSQTRKICHSLYFPQSLDFSQILPMKRESCDAEEQSGGQYELFAVIAHVGMADSGHYCVYIRNAVDGKWFCFNDSNICLVSWEDIQCTYGNPNYHWQETAYLLVYMKMEC
B8: Fructose-1,6-bisphosphatase isozyme 2 (Homo sapiens), O00757 (parent)
chain: MTDRSPFETDMLTLTRYVMEKGRQAKGTGELTQLLNSMLTAIKAISSAVRKAGLAHLYGIAGSVNVTGDEVKKLDVLSNSLVINMVQSSYSTCVLVSEENKDAIITAKEKRGKYVVCFDPLDGSSNIDCLASIGTIFAIYRKTSEDEPSEKDALQCGRNIVAAGYALYGSATLVALSTGQGVDLFMLDPALGEFVLVEKDVKIKKKGKIYSLNEGYAKYFDAATTEYVQKKKFPEDGSAPYGARYVGSMVADVHRTLVYGGIFLYPANQKSPKGKLRLLYECNPVAYIIEQAGGLATTGTQPVLDVKPEAIHQRVPLILGSPEDVQEYLTCVQKNQAGS

Variants of: B1
Settings: with arpc4_human ARPC4, P59998

| Variant | effect of a mutation on the interaction |
| --- | --- |
| L21Q | disrupting interaction strength |

Variants of: B1
Settings: with zfy26_human ZFYVE26, Q68DK2
zfy26_human ZFYVE26, Q68DK2, sequence (Q68DK2 whole entry): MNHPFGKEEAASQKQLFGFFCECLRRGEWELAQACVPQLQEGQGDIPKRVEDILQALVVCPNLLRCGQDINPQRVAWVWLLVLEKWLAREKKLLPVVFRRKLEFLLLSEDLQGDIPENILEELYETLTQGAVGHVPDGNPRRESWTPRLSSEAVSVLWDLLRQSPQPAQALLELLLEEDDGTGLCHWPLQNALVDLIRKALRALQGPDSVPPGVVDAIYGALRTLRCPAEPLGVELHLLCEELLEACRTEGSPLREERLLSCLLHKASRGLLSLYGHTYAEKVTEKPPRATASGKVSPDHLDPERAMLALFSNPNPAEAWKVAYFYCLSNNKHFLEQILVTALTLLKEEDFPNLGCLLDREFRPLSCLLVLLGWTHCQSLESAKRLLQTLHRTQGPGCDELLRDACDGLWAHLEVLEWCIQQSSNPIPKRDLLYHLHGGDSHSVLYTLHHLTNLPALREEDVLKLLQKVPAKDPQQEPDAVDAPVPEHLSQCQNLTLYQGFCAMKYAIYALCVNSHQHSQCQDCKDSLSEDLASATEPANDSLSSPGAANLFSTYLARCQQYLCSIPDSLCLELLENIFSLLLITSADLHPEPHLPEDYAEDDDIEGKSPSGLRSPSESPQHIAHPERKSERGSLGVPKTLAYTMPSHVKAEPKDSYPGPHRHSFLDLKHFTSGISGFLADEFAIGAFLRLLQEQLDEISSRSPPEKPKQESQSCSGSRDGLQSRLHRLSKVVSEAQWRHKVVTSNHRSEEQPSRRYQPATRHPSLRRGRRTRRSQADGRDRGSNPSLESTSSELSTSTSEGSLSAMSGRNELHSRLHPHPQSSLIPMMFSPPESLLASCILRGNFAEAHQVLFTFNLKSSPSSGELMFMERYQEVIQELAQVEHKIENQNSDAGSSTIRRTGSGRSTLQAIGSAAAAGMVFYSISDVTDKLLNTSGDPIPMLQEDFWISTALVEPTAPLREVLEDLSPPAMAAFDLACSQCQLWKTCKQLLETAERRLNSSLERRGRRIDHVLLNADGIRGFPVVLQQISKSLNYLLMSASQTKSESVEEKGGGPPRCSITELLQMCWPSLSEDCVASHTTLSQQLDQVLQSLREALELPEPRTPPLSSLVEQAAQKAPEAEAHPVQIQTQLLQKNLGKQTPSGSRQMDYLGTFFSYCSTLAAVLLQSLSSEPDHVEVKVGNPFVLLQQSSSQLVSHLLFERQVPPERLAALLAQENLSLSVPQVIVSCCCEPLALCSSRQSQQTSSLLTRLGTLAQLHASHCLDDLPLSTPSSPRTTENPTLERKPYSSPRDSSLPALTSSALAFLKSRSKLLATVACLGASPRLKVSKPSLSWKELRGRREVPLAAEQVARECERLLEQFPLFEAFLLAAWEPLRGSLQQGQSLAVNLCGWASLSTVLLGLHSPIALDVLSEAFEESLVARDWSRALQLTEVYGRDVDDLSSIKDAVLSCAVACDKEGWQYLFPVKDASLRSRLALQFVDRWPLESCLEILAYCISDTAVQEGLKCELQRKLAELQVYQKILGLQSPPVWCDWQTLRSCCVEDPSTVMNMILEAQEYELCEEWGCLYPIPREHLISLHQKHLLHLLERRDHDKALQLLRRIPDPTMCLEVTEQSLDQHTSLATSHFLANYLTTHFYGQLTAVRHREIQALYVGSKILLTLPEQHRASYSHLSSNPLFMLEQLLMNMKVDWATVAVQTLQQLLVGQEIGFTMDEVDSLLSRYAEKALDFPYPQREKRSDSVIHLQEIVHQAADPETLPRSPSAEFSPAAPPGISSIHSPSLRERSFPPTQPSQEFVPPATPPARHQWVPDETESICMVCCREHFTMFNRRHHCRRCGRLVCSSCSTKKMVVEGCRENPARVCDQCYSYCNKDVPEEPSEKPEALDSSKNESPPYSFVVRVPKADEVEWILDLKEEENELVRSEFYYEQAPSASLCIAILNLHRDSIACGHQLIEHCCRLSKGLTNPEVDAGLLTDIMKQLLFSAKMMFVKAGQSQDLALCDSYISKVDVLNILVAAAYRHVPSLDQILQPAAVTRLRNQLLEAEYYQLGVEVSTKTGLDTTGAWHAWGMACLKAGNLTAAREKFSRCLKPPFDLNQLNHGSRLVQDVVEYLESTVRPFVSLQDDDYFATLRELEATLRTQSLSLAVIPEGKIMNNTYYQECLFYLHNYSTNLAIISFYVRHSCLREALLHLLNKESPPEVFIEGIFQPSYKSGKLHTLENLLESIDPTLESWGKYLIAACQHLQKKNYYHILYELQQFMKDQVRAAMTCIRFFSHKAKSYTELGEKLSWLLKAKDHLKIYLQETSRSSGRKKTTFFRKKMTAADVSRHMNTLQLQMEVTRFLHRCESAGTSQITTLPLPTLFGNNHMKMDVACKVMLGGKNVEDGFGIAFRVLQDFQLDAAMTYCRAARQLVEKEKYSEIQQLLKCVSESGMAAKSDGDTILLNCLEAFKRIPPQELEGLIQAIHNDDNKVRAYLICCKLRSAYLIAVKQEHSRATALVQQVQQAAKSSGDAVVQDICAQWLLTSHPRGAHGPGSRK

| Variant | effect of a mutation on the interaction |
| --- | --- |
| L21Q | disrupting interaction strength |

Variants of: B1
Settings: with ccnc_human CCNC

| Variant | effect of a mutation on the interaction |
| --- | --- |
| L21Q | disrupting interaction strength |

Variants of: B1
Settings: with aapk1_human PRKAA1, Q13131
aapk1_human PRKAA1, Q13131, sequence (Q13131 whole entry, looked up): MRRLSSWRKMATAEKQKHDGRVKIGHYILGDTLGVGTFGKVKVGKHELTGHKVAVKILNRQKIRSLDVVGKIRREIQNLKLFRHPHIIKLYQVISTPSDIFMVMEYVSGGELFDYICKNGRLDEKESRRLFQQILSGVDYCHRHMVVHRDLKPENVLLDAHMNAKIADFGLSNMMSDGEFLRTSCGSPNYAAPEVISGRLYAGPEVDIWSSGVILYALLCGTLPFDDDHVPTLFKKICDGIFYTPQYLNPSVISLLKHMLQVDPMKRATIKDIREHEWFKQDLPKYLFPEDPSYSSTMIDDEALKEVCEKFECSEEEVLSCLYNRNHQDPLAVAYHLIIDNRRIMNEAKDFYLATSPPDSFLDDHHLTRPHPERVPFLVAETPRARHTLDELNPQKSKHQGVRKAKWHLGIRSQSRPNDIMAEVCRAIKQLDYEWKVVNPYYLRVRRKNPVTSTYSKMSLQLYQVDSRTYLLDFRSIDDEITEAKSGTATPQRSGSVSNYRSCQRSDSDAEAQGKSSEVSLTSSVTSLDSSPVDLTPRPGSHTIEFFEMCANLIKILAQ

| Variant | effect of a mutation on the interaction |
| --- | --- |
| L21Q | disrupting interaction strength |

Variants of: B2
Settings: with creb3_human CREB3, O43889

| Variant | effect of a mutation on the interaction |
| --- | --- |
| G40S | disrupting interaction strength |

Variants of: B3
Settings: with traf4_human TRAF4, Q9BUZ4

| Variant | effect of a mutation on the interaction |
| --- | --- |
| R239C | disrupting interaction strength |

Variants of: B4
Settings: with dd19a_human DDX19A

| Variant | effect of a mutation on the interaction |
| --- | --- |
| E160K | with no effect |

Variants of: B5
Settings: with lin7a_human LIN7A

| Variant | effect of a mutation on the interaction |
| --- | --- |
| S141Y | with no effect |

Variants of: B6
Settings: with creb3_human CREB3, O43889

| Variant | effect of a mutation on the interaction |
| --- | --- |
| R72Q | with no effect |

Variants of: B7
Settings: with isg15_human ISG15, P05161
isg15_human ISG15, P05161, sequence (P05161 whole entry): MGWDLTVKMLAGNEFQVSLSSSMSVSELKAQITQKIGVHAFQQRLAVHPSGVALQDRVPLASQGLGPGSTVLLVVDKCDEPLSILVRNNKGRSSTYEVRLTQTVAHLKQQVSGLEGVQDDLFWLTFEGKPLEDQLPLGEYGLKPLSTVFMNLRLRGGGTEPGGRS

| Variant | effect of a mutation on the interaction |
| --- | --- |
| T169M | with no effect |

Variants of: B8
Settings: with FBP1, P09467
FBP1, P09467, sequence (P09467 whole entry): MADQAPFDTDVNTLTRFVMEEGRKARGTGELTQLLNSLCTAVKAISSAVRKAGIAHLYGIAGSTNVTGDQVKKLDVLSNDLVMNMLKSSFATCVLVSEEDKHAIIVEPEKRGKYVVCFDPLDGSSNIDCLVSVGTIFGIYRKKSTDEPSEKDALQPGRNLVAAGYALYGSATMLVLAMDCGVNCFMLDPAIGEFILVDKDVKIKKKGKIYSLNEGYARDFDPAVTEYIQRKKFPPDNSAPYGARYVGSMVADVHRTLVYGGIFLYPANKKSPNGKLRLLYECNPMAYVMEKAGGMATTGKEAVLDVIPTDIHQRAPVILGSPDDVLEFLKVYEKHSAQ

| Variant | effect of a mutation on the interaction |
| --- | --- |
| Y216C | with no effect |
